Results taken from paper PMC12990809.

Experiments:
Experiment in all cases: pulldown
Conditions in all cases: 20 nM protein, 1.5 uM RNA pool; 20 mM HEPES pH 7.8, 70 mM KCl, 10 mM NaCl, 10% glycerol, 2 mM DTT, 0.1 ug/uL BSA; 30 min, 4 C
[1] = biological target: T1, PK23225.1 P17S (Cannabis sativa) (UniProt A0A7J6EWR7)
T1 sequence: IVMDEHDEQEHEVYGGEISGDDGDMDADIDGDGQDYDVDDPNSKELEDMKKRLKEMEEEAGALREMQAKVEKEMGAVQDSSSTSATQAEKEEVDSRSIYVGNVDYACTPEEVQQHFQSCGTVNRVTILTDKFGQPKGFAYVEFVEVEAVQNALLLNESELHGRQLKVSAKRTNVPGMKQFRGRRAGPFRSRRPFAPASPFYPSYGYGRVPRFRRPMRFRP

[2] = biological target: T2, PFI1175c (Plasmodium falciparum) (UniProt Q8I2R8)
T2 sequence: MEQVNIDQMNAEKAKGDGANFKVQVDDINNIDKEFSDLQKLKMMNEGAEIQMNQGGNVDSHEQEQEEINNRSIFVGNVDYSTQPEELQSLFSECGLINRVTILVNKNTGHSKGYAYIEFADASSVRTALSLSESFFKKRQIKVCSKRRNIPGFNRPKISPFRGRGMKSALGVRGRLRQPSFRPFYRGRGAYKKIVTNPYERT

[3] = biological target: T3, CBG15837 R479I (Caenorhabditis briggsae) (UniProt A8XMX3)
T3 sequence: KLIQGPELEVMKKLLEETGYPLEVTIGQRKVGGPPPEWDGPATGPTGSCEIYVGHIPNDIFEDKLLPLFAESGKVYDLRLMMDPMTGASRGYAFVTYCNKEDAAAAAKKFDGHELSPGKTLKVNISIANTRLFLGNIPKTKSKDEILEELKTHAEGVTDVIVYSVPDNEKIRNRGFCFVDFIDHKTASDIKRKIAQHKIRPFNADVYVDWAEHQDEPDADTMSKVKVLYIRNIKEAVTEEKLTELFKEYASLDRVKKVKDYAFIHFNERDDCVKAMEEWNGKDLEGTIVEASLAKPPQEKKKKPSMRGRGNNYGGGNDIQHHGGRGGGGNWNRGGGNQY

[4] = system: T4, PK15111.1 (Cannabis sativa)
T4 sequence: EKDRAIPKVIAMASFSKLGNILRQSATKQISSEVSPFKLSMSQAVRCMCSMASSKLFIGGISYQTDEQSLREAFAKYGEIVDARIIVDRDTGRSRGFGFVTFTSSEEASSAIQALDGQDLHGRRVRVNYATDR

[5] = biological target: T5, PK04894.1 Y197N (Cannabis sativa) (UniProt A0A803PQ48)
T5 sequence: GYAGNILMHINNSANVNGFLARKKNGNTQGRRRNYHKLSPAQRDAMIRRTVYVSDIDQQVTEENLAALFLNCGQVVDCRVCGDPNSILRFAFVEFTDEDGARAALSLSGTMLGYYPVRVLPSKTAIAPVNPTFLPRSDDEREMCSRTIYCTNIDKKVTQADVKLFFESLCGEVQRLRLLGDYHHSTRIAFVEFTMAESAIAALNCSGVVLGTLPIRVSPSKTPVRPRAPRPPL

[6] = system: T6, PK23842.1 (Cannabis sativa)
T6 sequence: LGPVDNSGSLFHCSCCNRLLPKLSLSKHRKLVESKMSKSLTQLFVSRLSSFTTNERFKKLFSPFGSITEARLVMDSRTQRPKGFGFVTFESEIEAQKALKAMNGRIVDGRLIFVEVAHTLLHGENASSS

[7] = biological target: T7, PK27686.1 K290R (Cannabis sativa) (UniProt A0A7J6ICA3)
T7 sequence: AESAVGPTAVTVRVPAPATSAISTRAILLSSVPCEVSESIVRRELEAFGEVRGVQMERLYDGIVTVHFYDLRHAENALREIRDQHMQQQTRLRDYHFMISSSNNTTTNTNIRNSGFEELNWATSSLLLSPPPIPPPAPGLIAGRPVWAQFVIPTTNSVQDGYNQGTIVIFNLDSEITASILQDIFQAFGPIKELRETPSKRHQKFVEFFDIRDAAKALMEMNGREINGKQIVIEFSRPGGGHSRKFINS

[8] = biological target: T8, SCL30 (Arabidopsis thaliana) (UniProt Q8L3X8)
T8 sequence: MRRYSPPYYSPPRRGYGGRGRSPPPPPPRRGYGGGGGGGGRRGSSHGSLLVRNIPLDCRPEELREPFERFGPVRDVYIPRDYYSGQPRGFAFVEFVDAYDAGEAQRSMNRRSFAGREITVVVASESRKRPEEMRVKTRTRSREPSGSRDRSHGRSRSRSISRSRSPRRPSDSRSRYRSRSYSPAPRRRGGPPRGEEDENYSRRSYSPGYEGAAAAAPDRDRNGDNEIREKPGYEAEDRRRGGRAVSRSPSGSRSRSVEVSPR

[9] = biological target: T9, RBM47 ins277_K (Meleagris gallopavo) (UniProt G1NI04)
T9 sequence: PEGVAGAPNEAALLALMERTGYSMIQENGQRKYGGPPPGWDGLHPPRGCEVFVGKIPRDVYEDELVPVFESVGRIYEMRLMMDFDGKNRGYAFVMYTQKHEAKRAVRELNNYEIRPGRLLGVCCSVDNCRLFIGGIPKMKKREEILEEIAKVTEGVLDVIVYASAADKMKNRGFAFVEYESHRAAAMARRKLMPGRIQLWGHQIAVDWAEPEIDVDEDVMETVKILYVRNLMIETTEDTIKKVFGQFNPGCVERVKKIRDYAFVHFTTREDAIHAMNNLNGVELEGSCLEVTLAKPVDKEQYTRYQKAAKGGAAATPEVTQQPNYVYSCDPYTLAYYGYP

[10] = biological target: T10, PK20300.1 (Cannabis sativa) (UniProt A0A803QWA0)
T10 sequence: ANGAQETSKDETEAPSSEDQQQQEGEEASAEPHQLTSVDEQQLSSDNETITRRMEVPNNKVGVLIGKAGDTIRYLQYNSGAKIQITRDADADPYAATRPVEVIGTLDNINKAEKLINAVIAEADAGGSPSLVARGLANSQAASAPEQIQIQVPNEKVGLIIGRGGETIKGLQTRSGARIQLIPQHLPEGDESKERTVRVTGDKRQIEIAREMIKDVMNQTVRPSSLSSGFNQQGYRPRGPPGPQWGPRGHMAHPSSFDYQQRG

Sequence: AAAAAGA [RNAcompete motif RNCMPT00370]
- binding signal (z-score (mean of top ten 7-mers)) [1]: 12

Sequence: AAAAAGA [RNAcompete motif RNCMPT00380]
- binding signal (z-score (mean of top ten 7-mers)) [2]: 9.25

Sequence: AAAAAUUU [RNAcompete motif RNCMPT00344]
- binding signal (z-score (mean of top ten 7-mers)) [3]: 9.1

Sequence: AAGUAGA [RNAcompete motif RNCMPT00368]
- binding signal (z-score (mean of top ten 7-mers)) [4]: 6.73

Sequence: AAUAAG [RNAcompete motif RNCMPT00346]
- binding signal (z-score (mean of top ten 7-mers)) [5]: 15.1

Sequence: AAUCCA [RNAcompete motif RNCMPT00372]
- binding signal (z-score (mean of top ten 7-mers)) [6]: 6.16

Sequence: AAUUUU [RNAcompete motif RNCMPT00349]
- binding signal (z-score (mean of top ten 7-mers)) [7]: 14.6

Sequence: AGAAGA [RNAcompete motif RNCMPT00382]
- binding signal (z-score (mean of top ten 7-mers)) [8]: 7.94

Sequence: AGAUGA [RNAcompete motif RNCMPT00394]
- binding signal (z-score (mean of top ten 7-mers)) [9]: 8.98

Sequence: AGCAUGA [RNAcompete motif RNCMPT00360]
- binding signal (z-score (mean of top ten 7-mers)) [10]: 11.4
